Experimental data reported in patent US20180134765A1 (AVIDBIOTICS, published 2018).
Substitutions are numbered along the chain they refer to. Names and notes keep the numbering of the source.

Key:
Y152A NKG2D-Fc = target: T1, Y152A NKG2D-Fc (human, UniProt P26718 78-216); experiment: phage ELISA: phage clone titrated against Y152A NKG2D
T1 construct: Biotinylated for the phage selections; also called non-natural Y152A NKG2D; not shown: Fc part; not described
T1 sequence (looked up): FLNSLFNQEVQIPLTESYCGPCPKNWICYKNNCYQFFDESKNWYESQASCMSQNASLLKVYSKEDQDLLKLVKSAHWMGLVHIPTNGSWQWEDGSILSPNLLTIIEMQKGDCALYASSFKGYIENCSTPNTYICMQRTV

human NKG2D-Fc [1] = target: T2, human NKG2D-Fc (human, UniProt P26718 78-216, limits assumed); experiment: ELISA: protein captured on FGFR3 detected with NKG2D-Fc
T2 construct: also called natural NKG2D-Fc; not shown: Fc part
T2 sequence (looked up): T1 sequence (looked up) with A75Y

FGFR3 (plate-coated) [2] = target: T3, FGFR3 (plate-coated) (UniProt P22607 23-375); experiment: ELISA: FGFR3 coated at 2 ug/ml, protein titrated, bound protein detected with NKG2D-Fc and anti-Fc-HRP
T3 construct: also called Fibroblast Growth Factor Receptor 3
T3 sequence (looked up): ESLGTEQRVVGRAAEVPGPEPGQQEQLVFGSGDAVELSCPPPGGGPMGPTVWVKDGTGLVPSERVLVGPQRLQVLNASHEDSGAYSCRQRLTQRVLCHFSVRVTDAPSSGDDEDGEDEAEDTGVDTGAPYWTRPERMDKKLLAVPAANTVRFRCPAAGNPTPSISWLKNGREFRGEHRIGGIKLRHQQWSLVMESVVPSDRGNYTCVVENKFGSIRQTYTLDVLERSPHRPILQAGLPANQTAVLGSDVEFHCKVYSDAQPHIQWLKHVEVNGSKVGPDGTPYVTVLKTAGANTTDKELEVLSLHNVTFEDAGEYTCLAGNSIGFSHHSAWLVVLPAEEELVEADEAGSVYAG

human NKG2D-Fc [3] = target: T2, human NKG2D-Fc; experiment: phage ELISA: phage-displayed ULBP2 α1-α2 variant titrated against NKG2D (the legend gives no form; Example 5 selected on human NKG2D-Fc)
[4] = target: T4, biotinylated human NKG2D (Example 3) (human, UniProt P26718 78-216, limits assumed, biotinylated (site not stated)); experiment: biolayer interferometry (Octet), Kd = kOFF/kON
T4 construct: also called recombinant biotinylated NKG2D; surface coated biotinylated human NKG2D
T4 sequence (looked up): T1 sequence (looked up) with A75Y

[5] = target: T4, biotinylated human NKG2D (Example 3); experiment: biolayer interferometry (Octet), biotinylated human NKG2D on the surface, 100 nM analyte
FGFR3 (plate-coated) [6] = target: T3, FGFR3 (plate-coated); experiment: ELISA on FGFR3-coated wells after 1 h at 70 C and 1 h at room temperature
FGFR3 (plate-coated) [7] = target: T3, FGFR3 (plate-coated); experiment: ELISA on FGFR3-coated wells after 1 h at 80 C and 1 h at room temperature
FGFR3 (plate-coated) [8] = target: T3, FGFR3 (plate-coated); experiment: ELISA: FGFR3 coated at 2 ug/ml, protein titrated, bound protein detected with NKG2D-Fc and anti-Fc-HRP; remark: listed apart in the source
human NKG2D-Fc [9] = target: T2, human NKG2D-Fc; experiment: phage ELISA: phage-displayed ULBP3 α1-α2 variant titrated against NKG2D (the legend gives no form; Example 5 selected on human NKG2D-Fc)

B1: MICA25.17 (ligand)
chain: EPHSLRYNLTVLSWDGSVQSGFLTEVHLDGQPFLRCDRQKCRAKPQGQWAEDVLGNKTWDRETRDLTGWGTTLLMTLAHIKDQKEGLHSLQEIRVCEIHEDNSTRSSQHFYYDGELFLSQNLETLEWTMPQSSRAQTLAMNVRNFLKEDAMETDIGYRLMRADCLSELRRYLKSGVVLRRTV
notes: Tested as phage clone (M13 pIII fusion)
EC50 (read off the curve) (Y152A NKG2D-Fc): ~0.005 phage OD

B2: MICA25.18 (ligand)
chain: B1 chain with T72F, L74R, I155R, G156S, Y157G, R158L
notes: as for B1
EC50 (read off the curve) (Y152A NKG2D-Fc): ~0.01 phage OD

B3: ULBP2-α3-iFv.2 (designed binder)
chain: EPHSLCYDITVIPKFRPGPRWCAVQGQVDEKTFLHYDCGNKTVTPVSPLGKKLNVTTAWKAQNPVLREVVDILTEQLRDIQLENYTPKEPLTLQARMSCEQKAEGHSSGSWQFSFDGQIFLLFDSEKRMWTTVHPGARKMKEKWENDKVVAMSFHYFSMGDCIGWLEDFLMGMDSTLEPSAGAPPMVQVTRSEASGGSGDRVTITCRASQDVSTAVAWYQQKPGKAPKLLIYSASFLYSGVPSRFSGSGSGTDFTLTISSLQPEDFATYYCQQSYTTPPTFGQGTKVEIKGGSSRSSSSGGGGSGGGGEVQLVESGGGLVQPGGSLRLSCAASGFTFTSTGISWVRQAPGKGLEWVGRIYPTNGSTNYADSVKGRFTISADTSKNTAYLQMNSLRAEDTAVYYCARTYGIYDLYVDYTEYVMDYWGQGTLVTVSSGGSSRSSSSGGGGSGGGGDIQMTQSPSSLSASGGSGQITVTCRASGFYPWNITLSWRQDGVSLSHDTQQWGDVLPDGQGTYQTWVATRISQGEEQRFTCYMEHSGQHSTHPVPSGKGSHHHHHH
notes: His-tagged, monomeric, insect cells; also called NKG2DL-α3-iFv.2 (ULBP2)
binding result (human NKG2D-Fc [1]): binds | EC50 (read off the curve) (FGFR3 (plate-coated) [2]): ~2 nM

B4: V151D (ligand)
α1-α2 domain, fused to pIII of M13 phage: AAEPHSLSYDITVIPKFRPGPRWCAVQGQVDEKTFLHYDCGNKTVTPVSPLGKKLNVTTAWKAQNPVLREVVDILTEQLRDIQLENYTPKEPLTLQARMSCEQKAEGHSSGSWQFSFDGQIFLLFDSEKRMWTTVHPGARKMKEKWENDKDVAMSFHYFSMGDCIGWLEDFLMGMDSTLEPSAGAP
EC50 (read off the curve) (human NKG2D-Fc [3]): ~0.01 OD268 (phage)

B5: WED-MICA (ligand)
chain: EPHSLRYNLTVLSWDGSVQSGFLTEVHLDGQPFLRCDRQKCRAKPQGQWAEDVLGNKTWDRETRDLTGWGKDLRMTLAHIKDQKEGLHSLQEIRVCEIHEDNSTRSSQHFYYDGELFLSQNLETKEWTMPQSSRAQTLAMNVRNFLKEDAMETDTHYHAMHADCLQELRRYLKSGVVLRRTVPPMVQVTRSEASGGSGDRVTITCRASQDVSTAVAWYQQKPGKAPKLLIYSASFLYSGVPSRFSGSGSGTDFTLTISSLQPEDFATYYCQQSYTTPPTFGQGTKVEIKGGSSRSSSSGGGGSGGGGEVQLVESGGGLVQPGGSLRLSCAASGFTFTSTGISWVRQAPGKGLEWVGRIYPTNGSTNYADSVKGRFTISADTSKNTAYLQMNSLRAEDTAVYYCARTYGIYDLYVDYTEYVMDYWGQGTLVTVSSGGSSRSSSSGGGGSGGGGDIQMTQSPSSLSASGGSGQITVTCRASGFYPWNITLSWRQDGVSLSHDTQQWGDVLPDGQGTYQTWVATRISQGEEQRFTCYMEHSGQHSTHPVPSGKGSHHHHHH
notes: also called WED-α1-α2 domains; WED soluble MICA protein
apparent Kd (pooled screen) [4]: 5.9 nM | apparent koff (pooled screen) [5]: 0.0017 s⁻¹ | apparent kon (pooled screen) [5]: 290000 M⁻¹ s⁻¹

B6: MICA-α3-iFv.2 (designed binder)
chain: B5 chain with W69N, E152K, D154K
notes: His-tagged, monomeric, made in insect cells; also called sMICA-α3-iFv.2
EC50 (read off the curve) (FGFR3 (plate-coated) [6]): ~5 nM | EC50 (read off the curve) (FGFR3 (plate-coated) [7]): ~5 nM | EC50 (read off the curve) (FGFR3 (plate-coated) [8]): ~2 nM

B7: ULBP3 R162G α1-α2 domain (phage-displayed library parent) (ligand)
chain: AAEPHSLWYNFTIIHLPRHGQQWCEVQSQVDQKNFLSYDCGSDKVLSMGHLEEQLYATDAWGKQLEMLREVGQRLRLELADTELEDFTPSGPLTLQVRMSCESEADGYIRGSWQFSFDGRKFLLFDSNNRKWTVVHAGARRMKEKWEKDSGLTTFFKMVSMGDCKSWLRDFLMHRKKRLEPTAP
binding result (human NKG2D-Fc [9]): binds
